In the supplement of paper PMC10567573:

B1: WDR41 (parent)
chain: WTMQAYERNFWDPSPQLDTQQEIK

Variants of: B1
Experiment: protein stability index of a GFP-peptide fusion (GPS, HEK-293T) (PSI 1-6); higher = more stable
Conditions: c terminus: a fixed tail appended
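Note: lentivirally expressed fusions sorted by FACS into six bins by GFP to DsRed ratio, PSI derived from sequencing read proportions per bin multiplied by bin number.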

Protein stability index, by site and new letter:
I23: L 2.91; Y 2.32; E 3.26; N 3.24; V 2.02; T 2.83; H 2.75; Q 3.15; R 2.91
N9: E 3.29; C 1.94; T 2.52; W 1.59; D 3.69; A 2.08; Q 1.64; L 1.35; S 2.46; F 2.12
T2: I 1.62; Q 2.89; N 2.11; E 3.75; L 1.69; G 2.93; A 2.01; S 2
E7: K 2.94; N 3.04; A 2.02; I 1.92
T19: F 1.55; V 2.35; E 2.37; K 2.69; R 2.05; N 2.96
F10: L 3.95; M 4.03; W 2.77; P 3.65; E 3.92; C 3.52; Y 3.38; G 3.25; R 3.55; A 3.23
K24: I 1.98; T 2.63; W 1.46; M 1.91; R 2.58; Q 2.44
Q4: P 3.21; V 2.25; L 2.35; R 1.8; I 3.51; A 2.23; K 1.5; G 3.34
R8: D 3.9; K 2.86; C 2.59; N 3.41; H 3.01; V 2.57
P15: R 1.99; N 2.6; V 2.19; S 2.02; T 3.12; M 2.7; Q 2.08; K 2.43
P13: L 3.3; E 3.17; F 1.82
L17: Y 2.49; S 2.68; G 3.22; F 2.94; Q 3.18; H 3.32
Q16: R 2.14; T 2.67; S 1.82; V 2.03; G 2.83; C 2.17; E 2.64
S14: K 2.09; A 3.06
D12: N 3.51; G 1.96; C 2.25; Y 1.4; L 3.49; K 2.06
A5: S 2.75; L 2.66; D 3.33; M 2.71; C 2.51; T 2.57; R 3.25; Y 2.18
W11: S 3.93; H 4.04; I 3.91; T 3.93; E 4.57; F 3.15; V 3.54; M 3.58; Q 3.93
W1: M 3.77; S 4.51; G 4.73; Y 3.58; D 5.58; I 3.35; K 4.15; C 2.3
M3: A 2.44; V 3.16; D 3.96; Y 2.24; N 2.34; L 2.69; W 2.77
Q21: M 2.93; I 1.73; V 2.51; N 2.71; G 2.62; D 2.1
Y6: N 2.93; H 1.92; T 2.83; R 3.58; L 2.98; F 2.58; D 3.34; E 3.19; G 2.86; V 2.79
E22: N 2.41; H 1.8; L 2.07; D 1.85; Y 2.17; C 2.55; W 1.88
D18: P 2.24; K 2.16; S 2.23; Y 1.97; T 2.44; E 2.7
Q20: L 2.19; A 1.64; I 2.07; S 2.07; H 2.86; R 2.44; F 1.99
